Reference: publication PMC4842275

Molecular target: HIV-1 capsid of the wild type HIV-1GFP vector (HIV-1)

Substance: engineered human TRIM5alpha fused with CypA at position S322 (T5Cyp) (from UniProt Q9C035 1-322)
- restriction of HIV-1GFP infection (GFP+ cells by FACS 48 h after infection) in Jurkat T5Cyp cells compared to H126Q cells: 10 fold
